In PMC10248883 (The Journal of Biological Chemistry, 2023):

Assays:
[1] = target: RAMP2–CLR ECD; settings: read-out: KI, equilibrium affinity; purified RAMP2–CLR ECD complex; ref [31]; cited from earlier work
[2] = target: RAMP3–CLR ECD; settings: read-out: KI, equilibrium affinity; purified RAMP3–CLR ECD complex; ref [31]; cited from earlier work
[3] = target: NLuc–CLR–RAMP3 receptor (AM2R) in COS-7 membranes (human) (UniProt Q16602); assay: FRET or BRET
Chain of NLuc–CLR–RAMP3 receptor (AM2R) in COS-7 membranes (human) (Q16602 23-461, chain 1 of 2): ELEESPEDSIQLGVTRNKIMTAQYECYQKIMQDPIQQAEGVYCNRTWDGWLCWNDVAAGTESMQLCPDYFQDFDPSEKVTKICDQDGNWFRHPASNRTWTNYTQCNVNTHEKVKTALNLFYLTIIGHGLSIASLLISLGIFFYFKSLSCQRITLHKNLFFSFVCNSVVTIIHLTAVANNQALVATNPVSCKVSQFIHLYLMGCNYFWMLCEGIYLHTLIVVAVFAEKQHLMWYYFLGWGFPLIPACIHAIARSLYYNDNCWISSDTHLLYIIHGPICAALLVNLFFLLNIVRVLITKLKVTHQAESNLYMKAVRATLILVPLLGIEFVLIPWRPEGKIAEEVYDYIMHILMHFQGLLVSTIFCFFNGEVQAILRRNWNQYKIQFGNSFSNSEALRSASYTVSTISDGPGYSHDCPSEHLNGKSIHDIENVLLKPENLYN
Chain of NLuc–CLR–RAMP3 receptor (AM2R) in COS-7 membranes (human) (O60896 24-148, chain 2 of 2, further chain): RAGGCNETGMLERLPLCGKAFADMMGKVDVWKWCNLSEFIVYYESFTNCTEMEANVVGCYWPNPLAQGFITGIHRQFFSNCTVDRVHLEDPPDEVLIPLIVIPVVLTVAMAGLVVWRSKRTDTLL

Substance	Ki [1] [nM]	Ki [2] [nM]	Kd [3] [nM]	half-life (t1/2) from the off-rate of the association kinetics [3] [min]	half-life of the fast component of dissociation [3] [min]	half-life of the slow component of dissociation [3] [min]
AM2/IMD: Synthetic human peptide AM2/IMD(1–47) purchased from Bachem	~14000	~2000	–	–	–	–
AM2/IMD–TAMRA (peptide)	–	–	7	41	7	76
AM–TAMRA (peptide)	–	–	26	2.6	0.75	6.9
